Experimental data published in paper PMC8881745 (Protein expression and purification, 2022).

Target: PPP1CA(2-330), His6-MBP tag cleaved by TEV protease (human, UniProt P62136 2-330)
Assay: SEC

Sequence of PPP1CA(2-330), His6-MBP tag cleaved by TEV protease (P62136 2-330): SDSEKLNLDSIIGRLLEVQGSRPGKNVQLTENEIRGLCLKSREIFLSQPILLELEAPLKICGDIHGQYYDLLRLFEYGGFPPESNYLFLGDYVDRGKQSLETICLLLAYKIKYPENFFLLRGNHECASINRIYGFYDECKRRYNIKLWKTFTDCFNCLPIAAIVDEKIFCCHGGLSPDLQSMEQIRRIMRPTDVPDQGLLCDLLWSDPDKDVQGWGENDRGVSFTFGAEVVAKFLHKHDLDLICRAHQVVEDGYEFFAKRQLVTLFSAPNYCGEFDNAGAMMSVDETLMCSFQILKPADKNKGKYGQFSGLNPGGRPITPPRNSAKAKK

- stoichiometry N: 1
B1: SHOC2, native full-length (natural protein, human, UniProt Q9UQ13 1-582, looked up)
chain: MSSSLGKEKDSKEKDPKVPSAKEREKEAKASGGFGKESKEKEPKTKGKDAKDGKKDSSAAQPGVAFSVDNTIKRPNPAPGTRKKSSNAEVIKELNKCREENSMRLDLSKRSIHILPSSIKELTQLTELYLYSNKLQSLPAEVGCLVNLMTLALSENSLTSLPDSLDNLKKLRMLDLRHNKLREIPSVVYRLDSLTTLYLRFNRITTVEKDIKNLSKLSMLSIRENKIKQLPAEIGELCNLITLDVAHNQLEHLPKEIGNCTQITNLDLQHNELLDLPDTIGNLSSLSRLGLRYNRLSAIPRSLAKCSALEELNLENNNISTLPESLLSSLVKLNSLTLARNCFQLYPVGGPSQFSTIYSLNMEHNRINKIPFGIFSRAKVLSKLNMKDNQLTSLPLDFGTWTSMVELNLATNQLTKIPEDVSGLVSLEVLILSNNLLKKLPHGLGNLRKLRELDLEENKLESLPNEIAYLKDLQKLVLTNNQLTTLPRGIGHLTNLTHLGLGENLLTHLPEEIGTLENLEELYLNDNPNLHSLPFELALCSKLSIMSIENCPLSHLPPQIVAGGPSFIIQFLKMQGPYRAMV
